Test results as given in patent EP4814014A1, “BINDING MOLECULE AND ANTIBODY-DRUG CONJUGATE AND USE THEREOF” (priority 2023, dated 2025).
Substitutions are numbered along the chain they refer to. Values belong to the binder of their own block, whether it stands above or below them.

Molecular target: T1, human EGFR on cells (human, UniProt P00533 25-1210)
T1 construct: whole, on cells; the cell line is named under assay; also called CHO-S-EGFR; CHOK1-huEGFR
Test: FACS, VHH-His on MDA-MB-468 cells

Maximum MFI value: 9680 MFI
B1: zn10A1.m6 (VHH, not shown: small tags and cut ends)
VHH: QVQLVESGGGLVQPGGSLRLSCAASGRTGSLHAMGWFRQAPGKERERVATLNLSDGSAVTADSVKGRFTISTDNSKNSVYLQMNSLRAEDTAVYYCTASRSPSGIRYYKPDYWGQGTLVTVSS

Maximum MFI value: 27400 MFI
B2: pn10A1.m5 (VHH, not shown: small tags and cut ends)
VHH: B1 VHH with P14A, G56V, S75T, R87K, A88P, L118Q

Maximum MFI value: 5480 MFI
B3: pn10A1.m3 (VHH, not shown: small tags and cut ends)
VHH: B1 VHH with P14A, N52Q, S54T, S75T, R87K, A88P, L118Q

Maximum MFI value: 5260 MFI
B4: pn10A1.m4 (VHH, not shown: small tags and cut ends)
VHH: B1 VHH with P14A, D55E, S75T, R87K, A88P, L118Q

Maximum MFI value: 5790 MFI
B5: pn10A1.m6 (VHH, not shown: small tags and cut ends)
VHH: B1 VHH with P14A, G56A, S75T, R87K, A88P, L118Q

Maximum MFI value: 3770 MFI
B6: pn10A1.m2 (VHH, not shown: small tags and cut ends)
VHH: B1 VHH with P14A, S54A, S75T, R87K, A88P, L118Q

Maximum MFI value: 10300 MFI
B7: pn10A1.m1 (VHH, not shown: small tags and cut ends)
VHH: B1 VHH with P14A, N52Q, S75T, R87K, A88P, L118Q

Maximum MFI value: 3480 MFI
B8: zn10A1.m5 (VHH, not shown: small tags and cut ends)
VHH: QVQLVQSGPEVKKPGTSVKVSCKASGRTGSLHAMGWFRQARGQERERVATLNLSDGSAVTADSVKGRFTITTDNSKNSVYMELSSLRSEDTAVYYCTASRSPSGIRYYKPDYWGQGTMVTVSS

EC50: 2.04 nM | Maximum MFI value: 94600 MFI
B9: V-n9B8 anti-EGFR VHH-His (VHH, not shown: small tags and cut ends)
VHH: QVQLVESGGGLVQPGGSLRLSCAASGLTFSYYAMAWFRQAPGKEREFVAAINWNGGNTYNTDSVKGRFTISRDNAKNTVYLQMNSLKPEDTAVYYCAVRYNSASYLVARSSDYNYWGQGTLVTVSS
notes: Monovalent parent VHH

EC50: 1.43 nM | Maximum MFI value: 57100 MFI
B10: zn9B8.m4 (VHH, not shown: small tags and cut ends)
VHH: B9 VHH with Q1E, V5L, A75S, K87R, P88S
notes: Humanized anti-EGFR VHH-His

EC50: 1.3 nM | Maximum MFI value: 71100 MFI
B11: zn5B10.m18 (VHH, not shown: small tags and cut ends)
VHH: EVQLVESGGGLVQPGGSLRLSCSASGTIIGTYTMAWYRQAPGKQREMVAIITPGGGSHHADSVKGRFTISRDNSKSTVYLQMSSLRAEDTAVYYCNAKARWGTTEYWGQGTLVTVSS
notes: Humanized anti-EGFR VHH-His

EC50: 0.219 nM | Maximum MFI value: 59200 MFI
B12: zn5B10.m20 (VHH, not shown: small tags and cut ends)
VHH: B11 VHH with S76N, V78L
notes: Humanized anti-EGFR VHH-His; also called hu5B10

EC50: 23.2 nM | Maximum MFI value: 93600 MFI
B13: zn5B10.m17 (VHH, not shown: small tags and cut ends)
VHH: B11 VHH with S23A, S76N, S83N, L112M
notes: Humanized anti-EGFR VHH-His

EC50: 1.15 nM | Maximum MFI value: 86900 MFI
B14: zn5B10.m22 (VHH, not shown: small tags and cut ends)
VHH: B11 VHH with S76N, V78L, A87F
notes: Humanized anti-EGFR VHH-His

EC50: 0.429 nM | Maximum MFI value: 58700 MFI
B15: zn5B10.m21 (VHH, not shown: small tags and cut ends)
VHH: B11 VHH with S74G, S76N, V78L
notes: Humanized anti-EGFR VHH-His

EC50: 1.94 nM | Maximum MFI value: 74200 MFI
B16: zn5B10.m23 (VHH, not shown: small tags and cut ends)
VHH: B11 VHH with S21D, A87F
notes: Humanized anti-EGFR VHH-His

EC50: 3.13 nM | Maximum MFI value: 76800 MFI
B17: zn5B10.m16 (VHH, not shown: small tags and cut ends)
VHH: B11 VHH with S23A, S76N, V78L, S83N, L112M
notes: Humanized anti-EGFR VHH-His
